From the supplement of paper PMC7877785 come the findings set out here.

The nature of the data set: self-splicing fitness, log relative to wild type (ln ratio); higher = more splicing; Tetrahymena group I intron in knt gene, E. coli kanamycin selection, DiMSum; sequences stand for … in CUCUCU…GGAGGGAAAAGUUAUCAGGCAUGCACCUGGUAGCUAGUCUUUAAACCAAUAGAUUGCAUCGGUUUAAAAGGCAAGACCGUCAAAUUGCGGGAAAGGGGUCAACAGCCGUUCAGUACCAAGUCUCAGGGGAAACUUUGAGAUGGCCUUGCAAAGGGUAUGGUAAUAAGCUGACGGACAUGGUCCUAACCACGCAGCCAAGUCCUAAGUCAACAGAUCUUCUGUUGAUAUGGAUGCAGUUCACAGACUAAAUGUCGGUCGGGGAAGAUGUAUUCUUCUCAUAAGAUAUAGUCGGACCUCUCCUUAAUGGGAGCUAGCGGAUGAAGUGAUGCAACACUGGAGCCGCUGGGAACUAAUUUGUAUGCGAAAGUAUAUUGAUUAGUUUUGGAGUACUCGUGGUCG
A digest of the protocol: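 Library with all eight P1ex-region intron nucleotides randomised, intron inside the knt kanamycin-resistance gene on pET-22b(+), in E. coli BL21(DE3). Cells grew overnight at 37°C or 30°C on LB agar with or without 25 μg/mL kanamycin (plus 100 μg/mL carbenicillin, 50 μM IPTG, 0.2% rhamnose), in six replicate transformations. Pooled colonies were amplicon-sequenced on Illumina HiSeq 2500. DiMSum fitness is the error-weighted combination of wild-type-normalised replicate fold changes, kanamycin versus none.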

± gives the uncertainty stated by the source.

Take UCUUAGCAAUAUUACGGGAU: the “self-splicing fitness (ln)” value reads like this: (30 °C) -3.65 ± 0.33; (37 °C) -2.65 ± 0.36.
On to CUUGAGCAAUAUUACGACGC, for which the “self-splicing fitness (ln)” value (30 °C) was -2.13 ± 0.39 and the “self-splicing fitness (ln)” value (37 °C) is -1.9 ± 0.46.
Consider GUCGAGCAAUAUUACGAAGG, for which, under “30 °C”, the “self-splicing fitness (ln)” value is -3.61 ± 0.47.
For UGCUAGCAAUAUUACGAAGG, the “self-splicing fitness (ln)” value was -2.13 ± 0.16 (30 °C) and -0.838 ± 0.34 (37 °C).
In the same order, the values of ACUGAGCAAUAUUACGGCUU are -3.22 ± 0.21 and -3.27 ± 0.4.
In the same order, the values of UUACAGCAAUAUUACGGCGA are -0.0852 ± 0.081 and 0.489 ± 0.11.
Turning to AUGUAGCAAUAUUACGAGCC, the “self-splicing fitness (ln)” value (37 °C) is -1.05 ± 0.49.
In the case of GCCAAGCAAUAUUACGAGGG, the “self-splicing fitness (ln)” value is, setting by setting: (30 °C) -2.8 ± 0.094; (37 °C) -1.82 ± 0.11.
CGACAGCAAUAUUACGGCAA: the “self-splicing fitness (ln)” value was -2.12 ± 0.21 (30 °C) and -1.58 ± 0.17 (37 °C).
For GCUCAGCAAUAUUACGGAGG, the “self-splicing fitness (ln)” value is, setting by setting: (30 °C) -1.44 ± 0.08; (37 °C) -0.504 ± 0.091.
As for CCUCAGCAAUAUUACGCUUC, the “self-splicing fitness (ln)” value (30 °C) is -3.45 ± 0.39 and the “self-splicing fitness (ln)” value (37 °C) is -3.01 ± 0.33.
Consider UGAGAGCAAUAUUACGUCAU, for which the “self-splicing fitness (ln)” value (30 °C) is -1.71 ± 0.26.
With ACAAAGCAAUAUUACGCUAA, the “self-splicing fitness (ln)” value (30 °C) is -2.51 ± 0.13 and the “self-splicing fitness (ln)” value (37 °C) is -1.14 ± 0.086.
Turning to UCCCAGCAAUAUUACGCCCA, the “self-splicing fitness (ln)” value was -1.5 ± 0.18 (30 °C) and -0.396 ± 0.14 (37 °C).
In the same order, the values of AUCAAGCAAUAUUACGGGGC are -3.13 ± 0.24 and -3.01 ± 0.26.
In the same order, the values of UGUAAGCAAUAUUACGGACA are -0.174 ± 0.16 and 0.153 ± 0.23.
In the same order, the values of CCGGAGCAAUAUUACGCUGA are -1.42 ± 0.29 and -1.75 ± 0.45.
As for UAAUAGCAAUAUUACGCGCU, the “self-splicing fitness (ln)” value runs as follows: (30 °C) 0.173 ± 0.2; (37 °C) -0.565 ± 0.18.
In the same order, the values of GGCUAGCAAUAUUACGCGGA are -0.936 ± 0.22 and -0.393 ± 0.22.
In the same order, the values of GCACAGCAAUAUUACGCUCA are -1.08 ± 0.088 and -0.585 ± 0.1.
Take AGAGAGCAAUAUUACGGGAC: the “self-splicing fitness (ln)” value (37 °C) was -2.61 ± 0.44.
In the case of UAAGAGCAAUAUUACGUCGA, the “self-splicing fitness (ln)” value was -3.95 ± 0.3 (30 °C) and -1.74 ± 0.17 (37 °C).
Take UCGAAGCAAUAUUACGCGAC: the “self-splicing fitness (ln)” value runs as follows: (30 °C) -3.47 ± 0.25; (37 °C) -2.2 ± 0.26.
In the same order, the values of UGAAAGCAAUAUUACGCGGC are -3.44 ± 0.33 and -2.07 ± 0.24.
In the same order, the values of GGGUAGCAAUAUUACGGCUU are -0.41 ± 0.11 and 0.232 ± 0.12.
For the sequence UCACAGCAAUAUUACGCCAC, the “self-splicing fitness (ln)” value (37 °C) is -3.66 ± 0.3.
As for ACAGAGCAAUAUUACGCCGA, the “self-splicing fitness (ln)” value (30 °C) was -2.95 ± 0.48 and the “self-splicing fitness (ln)” value (37 °C) was -2.76 ± 0.38.
In the same order, the values of AGGUAGCAAUAUUACGGCAC are -0.781 ± 0.017 and -0.277 ± 0.035.
In the same order, the values of CGGAAGCAAUAUUACGUUUC are -4.04 ± 0.29 and -2.69 ± 0.23.
On to GGCUAGCAAUAUUACGCACG, for which the “self-splicing fitness (ln)” value is -0.276 ± 0.093 (30 °C) and -0.119 ± 0.1 (37 °C).
As to GAAAAGCAAUAUUACGCACU, the “self-splicing fitness (ln)” value reads like this: (30 °C) -0.498 ± 0.098; (37 °C) 0.475 ± 0.1.
In the same order, the values of CGGCAGCAAUAUUACGGUCC are -1.34 ± 0.082 and 0.00991 ± 0.09.
Take AUGCAGCAAUAUUACGCAUA: the “self-splicing fitness (ln)” value (37 °C) was -2.06 ± 0.38.
As for ACAAAGCAAUAUUACGCAGU, the “self-splicing fitness (ln)” value (30 °C) was -3.46 ± 0.2 and the “self-splicing fitness (ln)” value (37 °C) was -2.78 ± 0.21.
In the same order, the values of AGACAGCAAUAUUACGACGC are -0.912 ± 0.086 and -0.726 ± 0.11.
